From patent US20240024520A1 (UCB, published 2024)
Changes are numbered by the printed parent chain. Values joined by “and” are separate entries in the source; they are usually repeats but may differ in a detail not shown here. Equal entries are not always repeated. Where two headings read alike, the source gives them in different places. Ends that are not written are not given here. * marks the point of attachment. Palmitoyl = CCCCCCCCCCCCCCCC(=O)*

Columns and labels:
[1] = target: T1, human complement component C5 (human, UniProt P01031 19-673; P01031 678-1676); assay: cell-based or functional assay
T1 sequence (P01031 19-673 limits assumed, chain 1 of 2): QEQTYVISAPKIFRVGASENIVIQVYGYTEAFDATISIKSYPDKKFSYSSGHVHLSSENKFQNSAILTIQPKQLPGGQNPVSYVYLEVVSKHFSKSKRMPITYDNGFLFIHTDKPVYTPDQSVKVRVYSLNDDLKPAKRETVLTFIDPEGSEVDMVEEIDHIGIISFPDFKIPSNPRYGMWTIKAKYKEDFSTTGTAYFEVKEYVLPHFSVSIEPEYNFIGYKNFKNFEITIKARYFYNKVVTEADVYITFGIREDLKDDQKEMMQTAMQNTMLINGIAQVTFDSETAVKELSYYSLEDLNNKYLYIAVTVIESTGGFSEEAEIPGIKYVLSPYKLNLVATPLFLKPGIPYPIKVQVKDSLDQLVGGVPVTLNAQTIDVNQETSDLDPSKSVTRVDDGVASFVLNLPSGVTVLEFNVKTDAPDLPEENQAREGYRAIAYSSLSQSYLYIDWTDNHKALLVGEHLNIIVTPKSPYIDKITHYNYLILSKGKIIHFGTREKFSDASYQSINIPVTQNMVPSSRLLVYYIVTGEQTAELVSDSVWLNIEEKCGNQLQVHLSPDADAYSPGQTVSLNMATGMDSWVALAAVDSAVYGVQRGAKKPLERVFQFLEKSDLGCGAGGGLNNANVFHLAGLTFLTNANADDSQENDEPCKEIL
T1 sequence (P01031 678-1676 limits assumed, chain 2 of 2): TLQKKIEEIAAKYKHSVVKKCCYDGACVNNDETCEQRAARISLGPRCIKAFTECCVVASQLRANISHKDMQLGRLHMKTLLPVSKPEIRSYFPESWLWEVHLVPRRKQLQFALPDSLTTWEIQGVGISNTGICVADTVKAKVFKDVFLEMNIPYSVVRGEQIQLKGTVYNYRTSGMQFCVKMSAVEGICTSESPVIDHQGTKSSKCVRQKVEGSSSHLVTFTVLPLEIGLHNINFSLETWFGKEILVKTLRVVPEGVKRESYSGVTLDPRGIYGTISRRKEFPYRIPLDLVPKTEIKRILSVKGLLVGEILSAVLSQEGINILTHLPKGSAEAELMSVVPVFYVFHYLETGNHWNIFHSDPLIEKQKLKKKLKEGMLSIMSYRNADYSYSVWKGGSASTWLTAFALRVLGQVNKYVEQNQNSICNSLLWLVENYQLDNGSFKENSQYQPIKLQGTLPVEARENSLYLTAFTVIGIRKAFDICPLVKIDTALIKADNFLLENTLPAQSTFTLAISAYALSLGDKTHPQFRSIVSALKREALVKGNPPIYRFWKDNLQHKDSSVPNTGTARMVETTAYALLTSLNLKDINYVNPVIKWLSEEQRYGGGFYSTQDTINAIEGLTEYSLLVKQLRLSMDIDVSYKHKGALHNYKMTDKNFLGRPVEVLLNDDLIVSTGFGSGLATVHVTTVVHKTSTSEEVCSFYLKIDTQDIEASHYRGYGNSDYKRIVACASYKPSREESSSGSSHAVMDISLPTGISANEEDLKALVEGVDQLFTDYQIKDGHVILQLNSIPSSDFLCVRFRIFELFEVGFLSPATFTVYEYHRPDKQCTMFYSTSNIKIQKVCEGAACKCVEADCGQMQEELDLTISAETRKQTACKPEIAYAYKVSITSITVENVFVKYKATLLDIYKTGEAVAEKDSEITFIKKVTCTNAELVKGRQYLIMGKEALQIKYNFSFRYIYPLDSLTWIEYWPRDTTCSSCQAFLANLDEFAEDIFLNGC

[2] = target: T1, human complement component C5; assay: cell-based or functional assay; remark: listed apart in the source
[3] = target: T1, human complement component C5; assay: SPR single-cycle kinetics, human C5, n=1
[4] = target: T1, human complement component C5; assay: SPR (Biacore), C5, mean of n=3
[5] = target: T1, human complement component C5
[6] = target: T1, human complement component C5; remark: listed apart in the source
[7] = target: T1, human complement component C5; remark: listed apart in the source
[8] = target: T1, human complement component C5; assay: SPR multi-cycle kinetics, human C5 immobilised, mean of n=3
mouse serum albumin = target: T2, mouse serum albumin (mouse, UniProt P07724 25-608); assay: monoclonal phage ELISA
T2 construct: also called MSA

rat serum albumin = rat serum albumin (rat, UniProt P02770 25-608); assay: monoclonal phage ELISA
Chain of rat serum albumin (P02770 25-608 limits assumed): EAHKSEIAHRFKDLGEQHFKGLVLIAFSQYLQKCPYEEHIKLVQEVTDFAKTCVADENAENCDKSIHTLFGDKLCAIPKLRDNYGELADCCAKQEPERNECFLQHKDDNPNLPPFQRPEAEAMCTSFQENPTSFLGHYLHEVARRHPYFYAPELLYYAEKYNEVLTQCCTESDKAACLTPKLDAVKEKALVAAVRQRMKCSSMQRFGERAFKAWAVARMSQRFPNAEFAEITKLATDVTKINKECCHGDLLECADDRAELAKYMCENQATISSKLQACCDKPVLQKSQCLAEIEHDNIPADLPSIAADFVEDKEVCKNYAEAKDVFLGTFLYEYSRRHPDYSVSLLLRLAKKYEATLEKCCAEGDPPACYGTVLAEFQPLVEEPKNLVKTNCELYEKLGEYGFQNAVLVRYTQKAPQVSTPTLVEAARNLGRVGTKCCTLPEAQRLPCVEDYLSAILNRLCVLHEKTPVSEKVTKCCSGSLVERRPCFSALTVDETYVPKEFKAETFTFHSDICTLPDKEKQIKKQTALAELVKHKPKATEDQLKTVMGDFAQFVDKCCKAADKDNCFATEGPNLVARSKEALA

B1: K92 knob domain peptide, chemically synthesised, free energy method (Example 4) (peptide)
peptide: TCPEGWSECGVAIYGYECGRWGCGHFLNSGPNISPYVTTGS
modifications: disulfide (positions not given here); also: disulphides formed in glutathione redox buffer, pairing not given here
notes: Disulphides formed in glutathione redox buffer
Classical pathway C5b deposition ELISA, average Emax [1]: -33.9%
Classical pathway C5b deposition ELISA, geomean IC50 [1]: 6.6 nM
Alternative pathway C5b neoepitope ELISA, average Emax [2]: 56.8%
Alternative pathway C5b neoepitope ELISA, geomean IC50 [2]: 46.2 nM
Kd [3]: 0.643 nM
koff [3]: 0.000103 s⁻¹
kon [3]: 160000 M⁻¹ s⁻¹

B2: hC3nb1-K57 loop 2 with C-terminal single-chain Fc tag (bispecific antibody, not shown: a dimerising Fc or GST)
VHH: QVQLVETGGGLVQAGGSLRLSCAASGSIFSLNAMGWFRQAPSGGGSGCPPGYKSGVDCSPGSECKWGCYAVDGRRYGGYGADSGVSGGGSKEREFVATINRSGGRTYYADSVKGRFTISRDNGKNMVYLQMHSLKPEDTAIYYCAAGTGWSPQTDNEYNYWGQGTQVTVSS
notes: also called hC3Nb1 Loop 2
Kd [4]: 0.321 nM

B3: hC3nb1-K57 loop 3 with C-terminal single-chain Fc tag (bispecific antibody, not shown: a dimerising Fc or GST)
VHH: QVQLVETGGGLVQAGGSLRLSCAASGSIFSLNAMGWFRQAPGKEREFVATINRSGGRTYYADSVKGSGGGSGCPPGYKSGVDCSPGSECKWGCYAVDGRRYGGYGADSGVSGGGSRFTISRDNGKNMVYLQMHSLKPEDTAIYYCAAGTGWSPQTDNEYNYWGQGTQVTVSS
notes: also called hC3Nb1 Loop 3
Kd [4]: 0.596 nM

B4: K57 ultralong CDR-H3-hC3nb1 (bispecific antibody, not shown: a dimerising Fc or GST)
VHH: TTVHQRTIKSGCPPGYKSGVDCSPGSECKWGCYAVDGRRYGGYGADSGVGSTYTHEFYVDAWGQGSSSSGSSSSGQVQLVETGGGLVQAGGSLRLSCAASGSIFSLNAMGWFRQAPGKEREFVATINRSGGRTYYADSVKGRFTISRDNGKNMVYLQMHSLKPEDTAIYYCAAGTGWSPQTDNEYNYWGQGTQVTVSS
notes: tied to the label 'hC3Nb1 N-Term' on that ground; also called hC3Nb1 N-Term
Kd [4]: 0.192 nM

B5: PGT121 Fab-K57 knob domain fusion protein (Fab)
heavy: QMQLQESGPGLVKPSETLSLTCSVSGASISDSYWSWIRRSPGKGLEWIGYVHKSGDTNYSPSLKSRVNLSLDTSKNQVSLSLVAATAADSGKYYCARTLHGRRIYGSENLYFQGSGCPPGYKSGVDCSPGSECKWGCYAVDGRRYGGYGADSGVENLYFQGSEWFTYFYMDVWGNGTQVTVSSASTKGPSVFPLAPSSKSTSGGTAALGCLVKDYFPEPVTVSWNSGALTSGVHTFPAVLQSSGLYSLSSVVTVPSSSLGTQTYICNVNHKPSNTKVDKRVEPKSCDKTLEENLYFQGSGGSHHHHHHHHHH
light: QSVLTQPPDISVAPGETARISCGEKSLGSRAVQWYQHRAGQAPSLIIYNNQDRPSGIPERFSGSPDSPFGTTATLTITSVEAGDEADYYCHIWDSRVPTKWVFGGGTTLTVLGQPKAAPSVTLFPPSSEELQANKATLVCLISDFYPGAVTVAWKADSSPVKAGVETTTPSKQSNNKYAASSYLSLTPEQWKSHRSYSCQVTHEGSTVEKTVAPTECS
Kd [5]: 4.1 nM
koff [5]: 0.000132 s⁻¹
kon [5]: 32300 M⁻¹ s⁻¹
Kd [6]: 4.9 nM and 3 nM and 3.4 nM and 3.7 nM
Kd [7]: 3.3 nM and 2.3 nM and 3.4 nM and 3 nM

B6: PGT121 Fab-K92 knob domain fusion protein (Fab)
heavy: QMQLQESGPGLVKPSETLSLTCSVSGASISDSYWSWIRRSPGKGLEWIGYVHKSGDTNYSPSLKSRVNLSLDTSKNQVSLSLVAATAADSGKYYCARTLHGRRIYGSENLYFQGVTCPEGWSECGVAIYGYECGRWGCGHFLNSGPNISPYVTTGSENLYFQGSEWFTYFYMDVWGNGTQVTVSSASTKGPSVFPLAPSSKSTSGGTAALGCLVKDYFPEPVTVSWNSGALTSGVHTFPAVLQSSGLYSLSSVVTVPSSSLGTQTYICNVNHKPSNTKVDKRVEPKSCDKTLEENLYFQGSGGSHHHHHHHHHH
light: B5 light
Kd [5]: < 0.1 nM
koff [5]: < 2.93e-05 s⁻¹
kon [5]: 28000 M⁻¹ s⁻¹
Kd [6]: 14 nM and 10.3 nM and 15.5 nM and 13.1 nM
Kd [7]: 19.3 nM and 7.7 nM and 11.3 nM and 11.9 nM

B7: PGT121 Fab-K136 knob domain fusion protein (Fab)
heavy: QMQLQESGPGLVKPSETLSLTCSVSGASISDSYWSWIRRSPGKGLEWIGYVHKSGDTNYSPSLKSRVNLSLDTSKNQVSLSLVAATAADSGKYYCARTLHGRRIYGSENLYFQGTCPDNYREVDGCDPYDCCLTTWCTNSYCTRYIENLYFQGSEWFTYFYMDVWGNGTQVTVSSASTKGPSVFPLAPSSKSTSGGTAALGCLVKDYFPEPVTVSWNSGALTSGVHTFPAVLQSSGLYSLSSVVTVPSSSLGTQTYICNVNHKPSNTKVDKRVEPKSCDKTLEENLYFQGSGGSHHHHHHHHHH
light: B5 light
Kd [5]: < 0.1 nM
koff [5]: < 1e-05 s⁻¹
kon [5]: 9520 M⁻¹ s⁻¹
Kd [6]: 46.3 nM and 115 nM and 73 nM
Kd [7]: 46.3 nM and 23.4 nM and 58.1 nM and 39.8 nM

B8: PGT121 Fab-K149 knob domain fusion protein (Fab)
heavy: QMQLQESGPGLVKPSETLSLTCSVSGASISDSYWSWIRRSPGKGLEWIGYVHKSGDTNYSPSLKSRVNLSLDTSKNQVSLSLVAATAADSGKYYCARTLHGRRIYGSENLYFQGSCPDGFSYRSWDDFCCPMVGRCLAPRNGSENLYFQGSEWFTYFYMDVWGNGTQVTVSSASTKGPSVFPLAPSSKSTSGGTAALGCLVKDYFPEPVTVSWNSGALTSGVHTFPAVLQSSGLYSLSSVVTVPSSSLGTQTYICNVNHKPSNTKVDKRVEPKSCDKTLEENLYFQGSGGSHHHHHHHHHH
light: B5 light
Kd [5]: 143 nM
koff [5]: 0.00162 s⁻¹
kon [5]: 11300 M⁻¹ s⁻¹
Kd [6]: 34.9 nM and 57.6 nM and 30.1 nM and 39.3 nM

cyclo(VCPDGFNWGYGCAAGSSRFCTRHDWCCYDERADSHTYGFCTGNRV) (also: disulphides formed by free energy method, pairing not given here, Head-to-tail cyclised K8chemFE) [K8 chemFE cyclic]
Kd [8]: 28.5 nM
koff [8]: 0.00259 s⁻¹
kon [8]: 94000 M⁻¹ s⁻¹

Palmitoyl-GCPPGYKSGVDCSPGSECKWGCYAVDGRRYGGYGADSGVGS (also: disulphides formed by free energy method, pairing not given here) [K57chemFE-Palmitoyl]
Kd [8]: 9.52 nM
koff [8]: 0.000477 s⁻¹
kon [8]: 51100 M⁻¹ s⁻¹

B9: ultralong CDR-H3 of SEQ ID NO: 497 displayed on M13 phage (other)
chain: TTVHQKTTRQTSCPDGYIAGDSSCYRWRCRGNNCCKYGENRLLNYYDYTCVPYRDTYEWYVD
notes: not shown: poly-histidine, c-myc tag, M13 pIII
binding result (mouse serum albumin): binds

B10: ultralong CDR-H3 of SEQ ID NO: 499 displayed on M13 phage (other)
chain: TTVHQQTQKHCPDDDTDRDGCSRPDSRGGSGCGSYGRYGDQGGACCPLTYEFDV
notes: as for B9
binding result (mouse serum albumin): binds
binding result (rat serum albumin): binds

B11: ultralong CDR-H3 of SEQ ID NO: 506 displayed on M13 phage (other)
chain: TTVHQQTQERCPDDYTDRGGCSIPYNCGGSRCCAYGRNGGYGGVSCSRTYEFYVN
notes: as for B9
binding result (mouse serum albumin): binds
binding result (rat serum albumin): binds

B12: ultralong CDR-H3 of SEQ ID NO: 500 displayed on M13 phage (other)
chain: B11 chain with V44I
notes: as for B9
binding result (mouse serum albumin): binds
binding result (rat serum albumin): binds

B13: ultralong CDR-H3 of SEQ ID NO: 501 displayed on M13 phage (other)
chain: B11 chain with V44N, S45T, F52L, N55E
notes: as for B9
binding result (mouse serum albumin): binds
binding result (rat serum albumin): binds

B14: ultralong CDR-H3 of SEQ ID NO: 502 displayed on M13 phage (other)
chain: B11 chain with N26T
notes: as for B9
binding result (mouse serum albumin): binds
binding result (rat serum albumin): binds

B15: ultralong CDR-H3 of SEQ ID NO: 503 displayed on M13 phage (other)
chain: B11 chain with V44I, F52W, N55D
notes: as for B9
binding result (mouse serum albumin): binds
binding result (rat serum albumin): binds

B16: ultralong CDR-H3 of SEQ ID NO: 504 displayed on M13 phage (other)
chain: B11 chain with N26S, G29D
notes: as for B9
binding result (mouse serum albumin): binds
binding result (rat serum albumin): binds

B17: ultralong CDR-H3 of SEQ ID NO: 505 displayed on M13 phage (other)
chain: B11 chain with N38Y, G40D, V44I
notes: as for B9
binding result (mouse serum albumin): binds
binding result (rat serum albumin): binds

B18: ultralong CDR-H3 of SEQ ID NO: 507 displayed on M13 phage (other)
chain: B11 chain with D14N, N26S, G29D
notes: as for B9
binding result (mouse serum albumin): binds
binding result (rat serum albumin): binds

B19: ultralong CDR-H3 of SEQ ID NO: 508 displayed on M13 phage (other)
chain: B11 chain with D14N, N26T
notes: as for B9
binding result (mouse serum albumin): binds
binding result (rat serum albumin): binds
